The values that follow come from PMC8795524.

Common to all, as to test: EMSA
A general note: In EMSA bound probe runs differently from free probe, usually more slowly.

The target in one data set is T1, SAMD9 134-385 (Homo sapiens, UniProt Q5K651 134-385).
T1 sequence: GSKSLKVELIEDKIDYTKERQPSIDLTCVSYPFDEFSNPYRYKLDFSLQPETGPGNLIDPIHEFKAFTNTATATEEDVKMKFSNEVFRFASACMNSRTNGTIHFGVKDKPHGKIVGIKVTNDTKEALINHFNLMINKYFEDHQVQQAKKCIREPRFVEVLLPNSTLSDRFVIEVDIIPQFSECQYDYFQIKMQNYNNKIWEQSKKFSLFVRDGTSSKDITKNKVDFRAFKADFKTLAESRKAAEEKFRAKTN

For a further data set, the target named is T2, SAMD9 134-385 K257E (Homo sapiens, UniProt Q5K651 134-385, K257E).
T2 sequence: T1 sequence with K124E

The next data set deals with T3, SAMD9 134-385 K198E (Homo sapiens, UniProt Q5K651 134-385, K198E).
T3 sequence: T1 sequence with K65E

The target of another data set is T4, SAMD9 134-385 R221E (Homo sapiens, UniProt Q5K651 134-385, R221E).
T4 sequence: T1 sequence with R88E

Changes are numbered by the printed parent chain.

B1: 11-nt dsDNA (dsDNA)
DNA 1: GAGAAAGAGAG
DNA 2: CTCTCTTTCTC
With B1, the binding result in the data set with SAMD9 134-385 is given as “no binding”.

B2: 5' 6-FAM 22-nt dsDNA (dsDNA)
DNA 1: GCAAATTAATGATTTATTCAAG
DNA 2: CTTGAATAAATCATTAATTTGC
For the molecule B2, the binding result is given as “binds” in the data set with SAMD9 134-385 K257E, “no binding” with SAMD9 134-385 K198E and “no binding” with SAMD9 134-385 R221E.
